{
  "source": "the supplement of paper PMC9112550",
  "about": "“Optimization of the antimicrobial peptide Bac7 by deep mutational scanning” (BMC Biology, 2022);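 note: peptides expressed intracellularly from a pBAD plasmid library in pooled LB shake-flask culture, induced with 0.3% L-arabinose, DNA abundance read by NGS, three biological replicates, DESeq2 with apeglm shrinkage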",
  "data": [
    {"tested_on": "Escherichia coli TOP10", "experiment": "shrunken log2 fold change of peptide-encoding DNA abundance (4.5 h post-induction vs induction); higher = less antimicrobial activity (less host growth inhibition)", "settings": "time post-induction: 4.5 h; library: site-saturation at positions 5, 18, 19, 20", "values": [
      {"sequence": "RRIRMRPPRLPRPRPRPPSCPRP", "shrunken log2 fold change": 0.932},
      {"sequence": "RRIRSRPPRLPRPRPRPQAVPRP", "shrunken log2 fold change": 0.197},
      {"sequence": "RRIRCRPPRLPRPRPRPSWYPRP", "shrunken log2 fold change": -0.675},
      {"sequence": "RRIRKRPPRLPRPRPRPKRLPRP", "shrunken log2 fold change": 0.0257},
      {"sequence": "RRIRVRPPRLPRPRPRPHAEPRP", "shrunken log2 fold change": 0.0163},
      {"sequence": "RRIRWRPPRLPRPRPRPAVTPRP", "shrunken log2 fold change": 0.599},
      {"sequence": "RRIRSRPPRLPRPRPRPCCPPRP", "shrunken log2 fold change": -0.0457},
      {"sequence": "RRIRGRPPRLPRPRPRPRPDPRP", "shrunken log2 fold change": 0.94},
      {"sequence": "RRIRRRPPRLPRPRPRPHLCPRP", "shrunken log2 fold change": 0.189},
      {"sequence": "RRIRHRPPRLPRPRPRPFEVPRP", "shrunken log2 fold change": -0.172},
      {"sequence": "RRIRTRPPRLPRPRPRPNQHPRP", "shrunken log2 fold change": -0.354},
      {"sequence": "RRIRCRPPRLPRPRPRPTKGPRP", "shrunken log2 fold change": -0.0938},
      {"sequence": "RRIRMRPPRLPRPRPRPQYCPRP", "shrunken log2 fold change": -0.0737},
      {"sequence": "RRIRNRPPRLPRPRPRPTQHPRP", "shrunken log2 fold change": 0.0469},
      {"sequence": "RRIRHRPPRLPRPRPRPRNVPRP", "shrunken log2 fold change": -0.00885},
      {"sequence": "RRIRTRPPRLPRPRPRPWTKPRP", "shrunken log2 fold change": -0.00433},
      {"sequence": "RRIRERPPRLPRPRPRPRCFPRP", "shrunken log2 fold change": -0.128},
      {"sequence": "RRIRWRPPRLPRPRPRPEIYPRP", "shrunken log2 fold change": 0.21},
      {"sequence": "RRIRCRPPRLPRPRPRPMDIPRP", "shrunken log2 fold change": 0.00412},
      {"sequence": "RRIRARPPRLPRPRPRPLDPPRP", "shrunken log2 fold change": 0.244},
      {"sequence": "RRIRVRPPRLPRPRPRPVVLPRP", "shrunken log2 fold change": 0.0921},
      {"sequence": "RRIRRRPPRLPRPRPRPSLCPRP", "shrunken log2 fold change": 1.05},
      {"sequence": "RRIRKRPPRLPRPRPRPGSPPRP", "shrunken log2 fold change": 0.166},
      {"sequence": "RRIRQRPPRLPRPRPRPSQWPRP", "shrunken log2 fold change": -0.02},
      {"sequence": "RRIRVRPPRLPRPRPRPIRSPRP", "shrunken log2 fold change": -0.125},
      {"sequence": "RRIRARPPRLPRPRPRPGQQPRP", "shrunken log2 fold change": 0.209},
      {"sequence": "RRIRKRPPRLPRPRPRPAIYPRP", "shrunken log2 fold change": -0.109},
      {"sequence": "RRIRKRPPRLPRPRPRPNEGPRP", "shrunken log2 fold change": 0.0728},
      {"sequence": "RRIRRRPPRLPRPRPRPAKIPRP", "shrunken log2 fold change": 0.117},
      {"sequence": "RRIRERPPRLPRPRPRPVSSPRP", "shrunken log2 fold change": -0.215},
      {"sequence": "RRIRPRPPRLPRPRPRPPDPPRP", "shrunken log2 fold change": 0.742},
      {"sequence": "RRIRQRPPRLPRPRPRPQIDPRP", "shrunken log2 fold change": -0.0357},
      {"sequence": "RRIRPRPPRLPRPRPRPQIRPRP", "shrunken log2 fold change": -0.207},
      {"sequence": "RRIRQRPPRLPRPRPRPRTEPRP", "shrunken log2 fold change": 2.94},
      {"sequence": "RRIRCRPPRLPRPRPRPHAMPRP", "shrunken log2 fold change": -0.145},
      {"sequence": "RRIRWRPPRLPRPRPRPQIMPRP", "shrunken log2 fold change": -0.0336},
      {"sequence": "RRIRDRPPRLPRPRPRPMKFPRP", "shrunken log2 fold change": -0.00192},
      {"sequence": "RRIRWRPPRLPRPRPRPHTNPRP", "shrunken log2 fold change": -0.283},
      {"sequence": "RRIRERPPRLPRPRPRPSLTPRP", "shrunken log2 fold change": -0.699},
      {"sequence": "RRIRNRPPRLPRPRPRPMRTPRP", "shrunken log2 fold change": 0.312},
      {"sequence": "RRIRGRPPRLPRPRPRPWVIPRP", "shrunken log2 fold change": -0.257},
      {"sequence": "RRIRKRPPRLPRPRPRPSEVPRP", "shrunken log2 fold change": -0.524},
      {"sequence": "RRIRRRPPRLPRPRPRPAYKPRP", "shrunken log2 fold change": 0.0139},
      {"sequence": "RRIRKRPPRLPRPRPRPWHQPRP", "shrunken log2 fold change": -0.0165},
      {"sequence": "RRIRARPPRLPRPRPRPKGYPRP", "shrunken log2 fold change": 0.049},
      {"sequence": "RRIRVRPPRLPRPRPRPFALPRP", "shrunken log2 fold change": 0.0564},
      {"sequence": "RRIRVRPPRLPRPRPRPVFDPRP", "shrunken log2 fold change": -0.079},
      {"sequence": "RRIRKRPPRLPRPRPRPFFEPRP", "shrunken log2 fold change": 0.428},
      {"sequence": "RRIRLRPPRLPRPRPRPGTKPRP", "shrunken log2 fold change": 0.2},
      {"sequence": "RRIRIRPPRLPRPRPRPIGMPRP", "shrunken log2 fold change": -0.187},
      {"sequence": "RRIRVRPPRLPRPRPRPLCRPRP", "shrunken log2 fold change": -0.149},
      {"sequence": "RRIRDRPPRLPRPRPRPWCFPRP", "shrunken log2 fold change": -0.0692},
      {"sequence": "RRIRTRPPRLPRPRPRPRGHPRP", "shrunken log2 fold change": 0.182},
      {"sequence": "RRIRFRPPRLPRPRPRPKSEPRP", "shrunken log2 fold change": -0.213},
      {"sequence": "RRIRLRPPRLPRPRPRPLYDPRP", "shrunken log2 fold change": -0.924},
      {"sequence": "RRIRGRPPRLPRPRPRPGIKPRP", "shrunken log2 fold change": 0.429},
      {"sequence": "RRIRSRPPRLPRPRPRPCVAPRP", "shrunken log2 fold change": 0.0901},
      {"sequence": "RRIRFRPPRLPRPRPRPWDGPRP", "shrunken log2 fold change": 0.00772},
      {"sequence": "RRIRDRPPRLPRPRPRPIFWPRP", "shrunken log2 fold change": 0.0145},
      {"sequence": "RRIRCRPPRLPRPRPRPAQNPRP", "shrunken log2 fold change": 0.586},
      {"sequence": "RRIRERPPRLPRPRPRPFWLPRP", "shrunken log2 fold change": 0.463},
      {"sequence": "RRIRKRPPRLPRPRPRPDFRPRP", "shrunken log2 fold change": 0.134},
      {"sequence": "RRIRCRPPRLPRPRPRPCCTPRP", "shrunken log2 fold change": -0.238},
      {"sequence": "RRIRDRPPRLPRPRPRPCNTPRP", "shrunken log2 fold change": -0.224},
      {"sequence": "RRIRTRPPRLPRPRPRPHYEPRP", "shrunken log2 fold change": -0.174},
      {"sequence": "RRIRWRPPRLPRPRPRPYRKPRP", "shrunken log2 fold change": 0.0527},
      {"sequence": "RRIRLRPPRLPRPRPRPCGAPRP", "shrunken log2 fold change": 0.356},
      {"sequence": "RRIRCRPPRLPRPRPRPEVHPRP", "shrunken log2 fold change": -0.328},
      {"sequence": "RRIRIRPPRLPRPRPRPPNWPRP", "shrunken log2 fold change": 0.0636},
      {"sequence": "RRIRERPPRLPRPRPRPDRAPRP", "shrunken log2 fold change": 0.00194},
      {"sequence": "RRIRERPPRLPRPRPRPRPNPRP", "shrunken log2 fold change": 0.451},
      {"sequence": "RRIRTRPPRLPRPRPRPTYEPRP", "shrunken log2 fold change": -0.174},
      {"sequence": "RRIRARPPRLPRPRPRPNLQPRP", "shrunken log2 fold change": 0.177},
      {"sequence": "RRIRMRPPRLPRPRPRPDAPPRP", "shrunken log2 fold change": 3.16},
      {"sequence": "RRIRARPPRLPRPRPRPVVGPRP", "shrunken log2 fold change": 0.5}
    ]}
  ]
}
